Reference: patent US20240376170A1
Bridges are numbered along the chain shown (N, C = ends). Primed or numbered codes have the meaning given here. [ ]: non-standard residue; d: D form. Ygp(4) = Tyr with amino-capped PEG8 (O-(8x polyethylene glycol-amino)-tyrosine); Yn3(4) = Tyr with azide-capped PEG9 (O-(9x polyethylene glycol-azido)-tyrosine); PEG9″ = 9x polyethylene glycol spacer; PEG4′ = 4x polyethylene glycol; PEG9′ = 9x polyethylene glycol; hSer = N[C@@H](CCO)C(=O)O; Nle = CCCC[C@H](N)C(=O)O

biological target: IL-2Rβγ (CD122+, CD132+) on HEK-Blue IL-2Rβγ reporter cells (UniProt P14784); assay: cell-based or functional assay
Sequence (P14784 27-551 limits assumed, chain 1 of 2): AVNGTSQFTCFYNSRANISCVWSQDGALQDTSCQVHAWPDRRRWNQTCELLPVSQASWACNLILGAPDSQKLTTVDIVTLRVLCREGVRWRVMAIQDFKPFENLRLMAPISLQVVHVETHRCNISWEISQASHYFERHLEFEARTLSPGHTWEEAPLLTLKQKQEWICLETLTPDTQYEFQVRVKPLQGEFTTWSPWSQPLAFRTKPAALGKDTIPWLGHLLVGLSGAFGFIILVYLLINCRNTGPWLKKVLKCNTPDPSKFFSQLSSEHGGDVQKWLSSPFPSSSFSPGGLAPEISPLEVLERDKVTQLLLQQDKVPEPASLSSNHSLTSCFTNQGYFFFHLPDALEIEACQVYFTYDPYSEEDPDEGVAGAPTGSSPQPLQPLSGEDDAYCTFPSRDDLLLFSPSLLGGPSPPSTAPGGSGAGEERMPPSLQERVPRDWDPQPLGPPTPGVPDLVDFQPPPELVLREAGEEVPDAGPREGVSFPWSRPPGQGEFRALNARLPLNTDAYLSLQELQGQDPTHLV
Sequence (P31785 23-369 limits assumed, chain 2 of 2, further chain): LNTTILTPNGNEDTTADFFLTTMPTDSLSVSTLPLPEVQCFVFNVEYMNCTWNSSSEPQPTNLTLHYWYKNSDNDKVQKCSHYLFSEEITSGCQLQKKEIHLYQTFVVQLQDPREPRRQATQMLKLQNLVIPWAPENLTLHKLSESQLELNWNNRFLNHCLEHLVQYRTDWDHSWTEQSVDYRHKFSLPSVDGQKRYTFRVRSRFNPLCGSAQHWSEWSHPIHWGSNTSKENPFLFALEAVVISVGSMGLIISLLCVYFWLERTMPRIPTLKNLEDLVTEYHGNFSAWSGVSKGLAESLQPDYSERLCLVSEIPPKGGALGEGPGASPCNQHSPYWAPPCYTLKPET

Average EC50 (nM), HEK-Blue IL-2R (CD122+, CD132+) Reporter Assay [nM] | Binder
0.0118 | CMP-161, MMP2 cleaved (ligand, not fully specified (N-terminus, bridges); ends and bridges not checked; also: cut by MMP2 in the PLGLAG linker, site not given here, ring opened) PLGLAGAPTSSSTKKTQLQLEHLLLDLQ[Nle]ILEGINNYKNPKLTR[Nle]L[hSer][Yn3(4)]KF[Ygp(4)][Nle]PKKATELKHLQCLEEELKPLEEVL[hSer]LAQSKNFHLRPRDLISNINVIVLELKGSETTF[hSer]CEYADETATIVEFLNRWITFSQSIISTLT
0.0597 | CMP-152 (ligand, not fully specified; Nle, Hse, Yn3 (Tyr with azide-capped PEG9), Ygp (Tyr with amino-capped PEG8) as printed in Table 3; PEG9-PLGLAG on the N-terminus, cyclised through glutaryl to the side chain of Lys 32) PLGLAGAPTSSSTKKTQLQLEHLLLDLQXILNGINNYKNPKLTRXLXYKFYXPKKATELKHLQCLEEELKPLEEVLXLAQSKNFHLRPRDLISNINVIVLELKGSETTFXCEYADETATIVEFLNRWITFSQSIISTLT
0.192 | CMP-159 (ligand, linker N-28 via PEG4′; not fully specified (N-terminus); ends not checked) PLGLAGAPTSSSTKKTQLQLEHLLLDLE[Nle]ILNGINNYKNPKLTR[Nle]L[hSer][Yn3(4)]KF[Ygp(4)][Nle]PKKATELKHLQCLEEELKPLEEVL[hSer]LAQSKNFHLRPRDLISNINVIVLELKGSETTF[hSer]CEYADETATIVEFLNRWITFSQSIISTLT

Second part, the binder before the results:

Binder | Average EC50 (nM), HEK-Blue IL-2R (CD122+, CD132+) Reporter Assay [nM]
CMP-154, MMP2 cleaved (ligand, linker N-35 via PEG9′; not fully specified (N-terminus); ends not checked; also: cleavable peptide cut by MMP2, site not given here) PLGLAGAPTSSSTKKTQLQLEHLLLDLQ[Nle]ILNGIENYKNPKLTR[Nle]L[hSer][Yn3(4)]KF[Ygp(4)][Nle]PKKATELKHLQCLEEELKPLEEVL[hSer]LAQSKNFHLRPRDLISNINVIVLELKGSETTF[hSer]CEYADETATIVEFLNRWITFSQSIISTLT | 0.0059
CMP-152, MMP2 cleaved (ligand, linker N-38 via glutaryl‑PEG9; not fully specified (N-terminus); ends not checked; also: cleavable peptide cut by MMP2, site not given here) PLGLAGAPTSSSTKKTQLQLEHLLLDLQ[Nle]ILNGINNYKNPKLTR[Nle]L[hSer][Yn3(4)]KF[Ygp(4)][Nle]PKKATELKHLQCLEEELKPLEEVL[hSer]LAQSKNFHLRPRDLISNINVIVLELKGSETTF[hSer]CEYADETATIVEFLNRWITFSQSIISTLT | 0.0064
CMP-154 (ligand, linker N-35 via PEG9′; not fully specified (N-terminus); ends not checked) PLGLAGAPTSSSTKKTQLQLEHLLLDLQ[Nle]ILNGIENYKNPKLTR[Nle]L[hSer][Yn3(4)]KF[Ygp(4)][Nle]PKKATELKHLQCLEEELKPLEEVL[hSer]LAQSKNFHLRPRDLISNINVIVLELKGSETTF[hSer]CEYADETATIVEFLNRWITFSQSIISTLT | 0.106
CMP-161 (ligand, linker N-32 via PEG9″; not fully specified (N-terminus); ends not checked) PLGLAGAPTSSSTKKTQLQLEHLLLDLQ[Nle]ILEGINNYKNPKLTR[Nle]L[hSer][Yn3(4)]KF[Ygp(4)][Nle]PKKATELKHLQCLEEELKPLEEVL[hSer]LAQSKNFHLRPRDLISNINVIVLELKGSETTF[hSer]CEYADETATIVEFLNRWITFSQSIISTLT | 0.168
CMP-159, MMP2 cleaved (ligand, linker N-28 via PEG4′; not fully specified (N-terminus); ends not checked; also: cut by MMP2 in the PLGLAG linker, site not given here, ring opened) PLGLAGAPTSSSTKKTQLQLEHLLLDLE[Nle]ILNGINNYKNPKLTR[Nle]L[hSer][Yn3(4)]KF[Ygp(4)][Nle]PKKATELKHLQCLEEELKPLEEVL[hSer]LAQSKNFHLRPRDLISNINVIVLELKGSETTF[hSer]CEYADETATIVEFLNRWITFSQSIISTLT | 0.0071
